Measured values: patent US20180057604A1 (Genentech, published 2018)
Numbering of substitutions follows the chain as printed. Where two headings read alike, the source gives them in different places.

T1: cyno TfR extracellular domain (analogous construct to human TfR ecd) (cynomolgus monkey, UniProt Q5RDH6 87-760 (Pongo abelii entry))
T1 construct: also called cynoTfR ecd
T1 chain: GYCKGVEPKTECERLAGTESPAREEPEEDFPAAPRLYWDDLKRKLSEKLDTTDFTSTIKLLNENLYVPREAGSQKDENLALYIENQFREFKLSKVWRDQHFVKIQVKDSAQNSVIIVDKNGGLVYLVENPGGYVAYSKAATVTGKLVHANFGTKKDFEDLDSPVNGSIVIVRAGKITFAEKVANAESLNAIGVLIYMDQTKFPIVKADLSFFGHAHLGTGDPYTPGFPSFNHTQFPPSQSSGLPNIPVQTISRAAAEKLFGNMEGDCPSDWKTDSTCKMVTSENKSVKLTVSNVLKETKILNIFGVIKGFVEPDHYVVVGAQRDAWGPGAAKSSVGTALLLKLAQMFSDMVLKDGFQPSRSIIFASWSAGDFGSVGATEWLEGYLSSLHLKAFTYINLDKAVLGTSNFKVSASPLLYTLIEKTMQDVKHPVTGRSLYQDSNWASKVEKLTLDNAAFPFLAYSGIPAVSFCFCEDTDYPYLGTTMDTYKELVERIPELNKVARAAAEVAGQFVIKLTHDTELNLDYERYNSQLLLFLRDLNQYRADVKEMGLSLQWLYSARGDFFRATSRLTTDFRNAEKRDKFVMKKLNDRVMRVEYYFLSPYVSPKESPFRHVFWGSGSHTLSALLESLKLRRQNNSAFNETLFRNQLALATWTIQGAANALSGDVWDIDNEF

B1: hu15G11.v5 IgG (antibody, V domains shown)
VH: EVQLVQSGAEVKKPGASVKVSCKASGYTFTSYWMHWVRQAPGQRLEWIGEINPTNGRTNYIEKFKSRATLTVDKSASTAYMELSSLRSEDTAVYYCARGTRAYHYWGQGTMVTVSS
VL: DIQMTQSPSSLSASVGDRVTITCRASDNLYSNLAWYQQKPGKSPKLLVYDATNLADGVPSRFSGSGSGTDYTLTISSLQPEDFATYYCQHFWGTPLTFGQGTKVEIK
notes: Human IgG (detected with anti-human Fc gamma); also called humanized 15G11.v5
B2: 5896 (antibody, V domains shown)
VH: QLQLQESGPGLVKPSETLSLTCTVSGGSISSSSYYWGWIRQPPGKGLEWIGSIYRSGSTYYNPSLKSRVTISVDTSKNQFSLKLSSVTAADTAVYYCARVGHGISYFDLWGRGTLVTVSS
VL: EIVLTQSPATLSLSPGERATLSCRASQSVSSYLAWYQQKPGQAPRLLIYDASNRATGIPARFSGSGSGTDFTLTISSLEPEDFAVYYCQQSLTWPPRTFGGGTKVEIK
notes: anti-BACE1 IgG
B3: 6310 (antibody, V domains shown)
VH: B2 VH with S31W, G37S, S58R, S105N
VL: B2 VL with L92V
notes: anti-BACE1 IgG
B4: 5884 (antibody, V domains shown)
VH: QVQLVQSGAEVKKPGSSVKVSCKASGGTFSGYGISWVRQAPGQGLEWMGNIIPGFGTANYAQKFQGRVTITADESTSTAYMELSSLRSEDTAVYYCARSGGTKYGMLDVWGQGTMVTVSS
VL: EIVMTQSPATLSVSPGERATLSCRASQSVSSNLAWYQQKPGQAPRLLIYGASTRATGIPARFSGSGSGTEFTLTISSLQSEDFAVYYCQQLILWPPRTFGGGTKVEIK
notes: anti-BACE1 IgG
B5: 5887 (antibody, V domains shown)
VH: B4 VH with S30R, G33A
VL: B4 VL
notes: anti-BACE1 IgG
B6: 6303 (antibody, V domains shown)
VH: B4 VH with F29L, G33A, F64S, K103R
VL: B4 VL with Y49F, I92L, L93T
notes: anti-BACE1 IgG

Tests used:
[1] = target: T1, cyno TfR extracellular domain …; assay: ELISA, TfR-coated plate, IgG
[2] = target: T2, human TfR extracellular domain with N-terminal His tag (human, UniProt P02786 89-760); assay: ELISA, TfR-coated plate, IgG
T2 construct: Biotinylated in some assays; also called huTfR; HuTfR

[3] = target: T2, human TfR extracellular domain with …; assay: ELISA, immobilized huTfR, with and without 6.3 uM holo-Tf
[4] = target: T1, cyno TfR extracellular domain …; assay: ELISA, IgG
[5] = target: T2, human TfR extracellular domain with …; assay: ELISA, IgG
[6] = target: T1, cyno TfR extracellular domain …; assay: SPR, IgG;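 note: His-tagged TfR captured via immobilized anti-His antibody on a CM5 chip, antibody injected in 3-fold dilution series by single cycle kinetics, 1:1 Langmuir or steady-state fit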
[7] = target: T2, human TfR extracellular domain with …; assay: SPR, IgG;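 note: His-tagged TfR captured via immobilized anti-His antibody on a CM5 chip, antibody injected in 3-fold dilution series by single cycle kinetics, 1:1 Langmuir or steady-state fit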
[8] = target: T1, cyno TfR extracellular domain …; assay: SPR SCK 1:1 fit, IgG
[9] = target: T2, human TfR extracellular domain with …; assay: SPR SCK 1:1 fit, IgG
[10] = target: human BACE1 ECD; assay: cell-based or functional assay
[11] = target: murine BACE1 ECD; assay: cell-based or functional assay
[12] = target: T3, BACE1 (HTRF long substrate and FRET short substrate assays of Example 9D); assay: cell-based or functional assay
[13] = target: T4, BACE1 in primary mouse cortical neurons (mouse, UniProt P56818 46-501); assay: cell-based or functional assay
T4 sequence (P56818 46-501): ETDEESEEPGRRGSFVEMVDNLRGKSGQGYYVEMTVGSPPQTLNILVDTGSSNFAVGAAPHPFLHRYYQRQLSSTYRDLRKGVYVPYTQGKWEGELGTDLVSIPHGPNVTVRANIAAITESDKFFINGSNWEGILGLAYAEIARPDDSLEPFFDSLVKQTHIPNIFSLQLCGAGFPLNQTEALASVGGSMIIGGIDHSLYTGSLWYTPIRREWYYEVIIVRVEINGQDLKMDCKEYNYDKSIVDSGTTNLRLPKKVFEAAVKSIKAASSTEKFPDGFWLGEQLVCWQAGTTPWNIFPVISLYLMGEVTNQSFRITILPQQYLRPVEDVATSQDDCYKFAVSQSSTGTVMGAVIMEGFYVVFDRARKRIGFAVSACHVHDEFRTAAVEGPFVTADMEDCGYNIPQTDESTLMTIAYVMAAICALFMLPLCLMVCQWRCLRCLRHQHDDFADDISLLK

[14] = target: T5, human BACE1 (R&D Systems) (human, UniProt P56817); assay: SPR (Biacore), second run
T5 construct: recombinant, commercial (R&D Systems)
T5 sequence (P56817 22-457 limits assumed): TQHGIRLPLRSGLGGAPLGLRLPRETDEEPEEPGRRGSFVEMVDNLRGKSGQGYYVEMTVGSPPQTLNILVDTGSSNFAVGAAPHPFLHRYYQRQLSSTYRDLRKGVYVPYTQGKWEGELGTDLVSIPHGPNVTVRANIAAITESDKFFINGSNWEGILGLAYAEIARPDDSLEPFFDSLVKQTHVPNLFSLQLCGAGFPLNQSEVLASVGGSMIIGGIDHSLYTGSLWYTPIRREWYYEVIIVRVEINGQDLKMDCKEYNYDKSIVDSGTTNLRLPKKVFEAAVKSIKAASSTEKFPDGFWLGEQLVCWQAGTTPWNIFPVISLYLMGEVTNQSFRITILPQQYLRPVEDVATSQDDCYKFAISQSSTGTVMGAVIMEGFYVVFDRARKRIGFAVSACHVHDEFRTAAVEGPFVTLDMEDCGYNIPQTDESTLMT

[15] = target: T6, human BACE1 ECD; assay: Octet, pH 7.5, second run
T6 construct: analyte of the Octet assay (200 nM) and enzyme of the first short substrate assay; also called human BACE1 extracellular domain
T6 sequence (single chain, as listed by the source limits assumed): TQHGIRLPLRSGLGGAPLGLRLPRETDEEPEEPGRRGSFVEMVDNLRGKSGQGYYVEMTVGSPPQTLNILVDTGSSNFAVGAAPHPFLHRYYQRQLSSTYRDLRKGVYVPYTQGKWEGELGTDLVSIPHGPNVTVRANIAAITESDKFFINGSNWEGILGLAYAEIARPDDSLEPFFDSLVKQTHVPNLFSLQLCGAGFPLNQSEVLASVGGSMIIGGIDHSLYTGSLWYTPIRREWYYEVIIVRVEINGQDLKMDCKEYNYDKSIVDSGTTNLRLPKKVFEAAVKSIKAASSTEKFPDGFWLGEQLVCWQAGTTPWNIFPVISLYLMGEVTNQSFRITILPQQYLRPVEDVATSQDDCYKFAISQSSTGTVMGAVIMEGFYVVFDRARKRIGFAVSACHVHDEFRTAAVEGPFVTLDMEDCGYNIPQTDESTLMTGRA

[16] = target: T7, murine BACE1 ECD; assay: Octet, pH 7.5, second run
T7 construct: analyte of the Octet assay (200 nM) and enzyme of the first short substrate assay
T7 sequence (single chain, as listed by the source limits assumed): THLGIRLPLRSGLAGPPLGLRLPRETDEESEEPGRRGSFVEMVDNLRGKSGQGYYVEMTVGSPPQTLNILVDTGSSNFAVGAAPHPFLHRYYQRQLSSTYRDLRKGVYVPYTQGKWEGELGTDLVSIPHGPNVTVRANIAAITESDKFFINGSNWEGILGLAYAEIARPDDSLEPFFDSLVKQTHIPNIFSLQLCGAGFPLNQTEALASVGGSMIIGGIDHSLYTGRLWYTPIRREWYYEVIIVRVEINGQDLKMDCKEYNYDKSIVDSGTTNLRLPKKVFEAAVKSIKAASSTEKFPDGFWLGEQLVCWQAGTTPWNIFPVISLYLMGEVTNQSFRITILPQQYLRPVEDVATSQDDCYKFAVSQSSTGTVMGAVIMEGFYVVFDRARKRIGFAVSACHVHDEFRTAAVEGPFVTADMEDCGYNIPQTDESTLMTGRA

[17] = target: T6, human BACE1 ECD; assay: Octet, pH 5.0, second run
[18] = target: T7, murine BACE1 ECD; assay: Octet, pH 5.0, second run
[19] = target: T6, human BACE1 ECD; assay: Octet, pH 7.5
[20] = target: T7, murine BACE1 ECD; assay: Octet, pH 7.5
[21] = target: T6, human BACE1 ECD; assay: Octet, pH 5.0
[22] = target: T7, murine BACE1 ECD; assay: Octet, pH 5.0
[23] = target: T5, human BACE1 (R&D Systems); assay: SPR (Biacore)
[24] = target: T5, human BACE1 (R&D Systems); assay: SPR (Biacore); remark: listed apart in the source
[25] = target: T4, BACE1 in primary mouse cortical neurons; assay: cell-based or functional assay; remark: listed apart in the source
[26] = target: T6, human BACE1 ECD; assay: Octet, pH 5.0; remark: listed apart in the source
[27] = target: T7, murine BACE1 ECD; assay: Octet, pH 5.0; remark: listed apart in the source
[28] = target: T6, human BACE1 ECD; assay: Octet, pH 7.5; remark: listed apart in the source
[29] = target: T7, murine BACE1 ECD; assay: Octet, pH 7.5; remark: listed apart in the source
[30] = target: T5, human BACE1 (R&D Systems); assay: SPR (Biacore); remark: listed apart in the source
[31] = target: T6, human BACE1 ECD; assay: Octet, pH 7.5, second run; remark: listed apart in the source
[32] = target: T7, murine BACE1 ECD; assay: Octet, pH 7.5, second run; remark: listed apart in the source
[33] = target: T6, human BACE1 ECD; assay: Octet, pH 5.0; remark: listed apart in the source
[34] = target: T7, murine BACE1 ECD; assay: Octet, pH 5.0; remark: listed apart in the source
[35] = target: T6, human BACE1 ECD; assay: Octet, pH 7.5; remark: listed apart in the source
[36] = target: T7, murine BACE1 ECD; assay: Octet, pH 7.5; remark: listed apart in the source
[37] = target: T6, human BACE1 ECD; assay: Octet, pH 5.0, second run; remark: listed apart in the source
[38] = target: T7, murine BACE1 ECD; assay: Octet, pH 5.0, second run; remark: listed apart in the source
[39] = target: T3, BACE1 (HTRF long substrate and FRET …); assay: cell-based or functional assay; remark: listed apart in the source
[40] = target: T5, human BACE1 (R&D Systems); assay: SPR (Biacore), second run; remark: listed apart in the source

Row | Binder | % inhibition of BACE1 activity, short FRET substrate [10] [%] | % inhibition of BACE1 activity, short FRET substrate [11] [%] | IC50, Abeta x-40 in mouse cortical neurons [13] [nM] | maximal % inhibition of Abeta x-40 [13] [%] | Kd [14] [nM] | Kd [15] [nM] | Kd [16] [nM] | Kd [17] [nM] | Kd [18] [nM] | Kd [24] [nM] | IC50, Abeta x-40 in mouse cortical neurons [25] [nM] | maximal % inhibition of Abeta x-40 [25] [%] | Kd [26] [nM] | Kd [27] [nM] | Kd [28] [nM] | Kd [29] [nM] | Kd [30] [nM] | Kd [33] [nM] | Kd [34] [nM] | Kd [35] [nM] | other results
1 | B1 | – | – | – | – | – | – | – | – | – | – | – | – | – | – | – | – | – | – | – | – | EC50 [1]: 1.8 ng/mL; EC50 [2]: 0.8 ng/mL; EC50 (read off the curve) [3]: ~5 ng/mL; EC50 [4]: 20 ng/mL; EC50 [5]: 16 ng/mL; Kd [6]: 11.8 nM; Kd [7]: 3.33 nM; Kd [8]: 12 nM; Kd [9]: 3.3 nM
2 | B2 | -4 | -3 | 2.7 | 65 | 5.18 | 0.71 | 0.8 | 1.1 | 1 | – | – | – | – | – | – | – | – | – | – | – | EC50, FRET short substrate [12]: 3.35 nM; EC50, HTRF long substrate [12]: 3.46 nM; IC50, Abeta x-40 in mouse cortical neurons (5896*, second run) [13]: 5.72 nM; Kd [19]: 1.9 nM; Kd [20]: 2.9 nM; Kd [21]: 3 nM; Kd [22]: 3.1 nM; Kd [23]: 3.4 nM
3 | B3 | – | – | – | – | – | – | – | – | – | 1.63 | 0.17 | 71 | 0.44 | 0.5 | 0.46 | 0.47 | – | – | – | – | –
4 | B4 | -102 | -243 | 4.56 | 83 | – | – | – | – | – | – | – | – | – | – | – | – | 2.62 | 1.4 | 2 | 0.92 | Kd [31]: 0.46 nM; Kd [32]: 0.49 nM; Kd [36]: 1.3 nM; IC50, Abeta x-40 in mouse cortical neurons (5884*, second run) [13]: 3.51 nM; Kd [37]: 0.86 nM; Kd [38]: 1.3 nM; EC50, FRET short substrate [39]: 0.478 nM; EC50, HTRF long substrate [39]: 7.76 nM; Kd [40]: 5.23 nM
5 | B5 | -102 | -230 | 1.74 | 75 | 7.08 | 0.45 | 0.54 | 1.4 | 1.8 | – | – | – | – | – | – | – | 3.58 | 2.2 | 2.3 | 1.1 | Kd [36]: 1.4 nM; IC50, Abeta x-40 in mouse cortical neurons (5887*, second run) [13]: 2.53 nM; EC50, FRET short substrate [39]: 0.482 nM; EC50, HTRF long substrate [39]: 5.5 nM
6 | B6 | – | – | – | – | – | – | – | – | – | 3.09 | 4.1 | 76 | < 0.26 | < 0.32 | < 0.32 | < 0.35 | – | – | – | – | –
